Test results taken from paper PMC6497169 (Nature microbiology, 2017).

T1: IcmW (L. pneumophila (Philadelphia-1), UniProt Q5ZS31 1-151)
T1 sequence: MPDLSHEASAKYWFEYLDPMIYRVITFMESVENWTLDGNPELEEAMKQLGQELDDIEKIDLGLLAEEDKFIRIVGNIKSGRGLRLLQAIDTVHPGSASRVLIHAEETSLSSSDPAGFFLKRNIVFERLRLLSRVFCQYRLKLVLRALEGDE

T2: DotN(7–214) (L. pneumophila (Philadelphia-1), UniProt Q5ZYB7 7-214)
T2 sequence: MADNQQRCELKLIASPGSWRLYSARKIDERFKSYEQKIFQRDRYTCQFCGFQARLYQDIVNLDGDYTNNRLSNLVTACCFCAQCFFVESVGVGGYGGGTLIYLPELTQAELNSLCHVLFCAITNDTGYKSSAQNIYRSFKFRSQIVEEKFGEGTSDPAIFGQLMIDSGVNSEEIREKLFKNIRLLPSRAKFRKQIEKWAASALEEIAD

B1: DotL(656–783) (domain or fragment)
chain: GQNEPEPVEDIVEEEVEGALTIFSKLRIDPNAPPILVADKEVFSEPLLPINETRNQMITIERLAGAKDKYAGTVANELIKDFQIATSYPPEERDVIDVQELTGIIRDLSAKISAEREKANKKAAEELT
B2: DotL(590–659) (domain or fragment)
chain: VEPPPDDYLMKLQKQLASFQSILESGDLSINKAVENEEITLISKALKESTIVEPIERGVAALIAFHGQNE

Key:
IcmW = target: T1, IcmW; experiment: crystal structure
DotN(7–214) = target: T2, DotN(7–214); experiment: crystal structure

Binder | binding result (IcmW) | binding result (DotN(7–214))
B1 | binds | 
B2 |  | binds
